Sequences and labels used below:
B1: ADP-ribosylation factor 6 (Mus musculus), P62331 (parent)
chain: MGKVLSKIFGNKEMRILMLGLDAAGKTTILYKLKLGQSVTTIPTVGFNVETVTYKNVKFNVWDVGGQDKIRPLWRHYYTGTQGLIFVVDCADRDRIDEARQELHRIINDREMRDAIILIFANKQDLPDAMKPHEIQEKLGLTRIRDRNWYVQPSCATSGDGLYEGLTWLTSNYKS
partner: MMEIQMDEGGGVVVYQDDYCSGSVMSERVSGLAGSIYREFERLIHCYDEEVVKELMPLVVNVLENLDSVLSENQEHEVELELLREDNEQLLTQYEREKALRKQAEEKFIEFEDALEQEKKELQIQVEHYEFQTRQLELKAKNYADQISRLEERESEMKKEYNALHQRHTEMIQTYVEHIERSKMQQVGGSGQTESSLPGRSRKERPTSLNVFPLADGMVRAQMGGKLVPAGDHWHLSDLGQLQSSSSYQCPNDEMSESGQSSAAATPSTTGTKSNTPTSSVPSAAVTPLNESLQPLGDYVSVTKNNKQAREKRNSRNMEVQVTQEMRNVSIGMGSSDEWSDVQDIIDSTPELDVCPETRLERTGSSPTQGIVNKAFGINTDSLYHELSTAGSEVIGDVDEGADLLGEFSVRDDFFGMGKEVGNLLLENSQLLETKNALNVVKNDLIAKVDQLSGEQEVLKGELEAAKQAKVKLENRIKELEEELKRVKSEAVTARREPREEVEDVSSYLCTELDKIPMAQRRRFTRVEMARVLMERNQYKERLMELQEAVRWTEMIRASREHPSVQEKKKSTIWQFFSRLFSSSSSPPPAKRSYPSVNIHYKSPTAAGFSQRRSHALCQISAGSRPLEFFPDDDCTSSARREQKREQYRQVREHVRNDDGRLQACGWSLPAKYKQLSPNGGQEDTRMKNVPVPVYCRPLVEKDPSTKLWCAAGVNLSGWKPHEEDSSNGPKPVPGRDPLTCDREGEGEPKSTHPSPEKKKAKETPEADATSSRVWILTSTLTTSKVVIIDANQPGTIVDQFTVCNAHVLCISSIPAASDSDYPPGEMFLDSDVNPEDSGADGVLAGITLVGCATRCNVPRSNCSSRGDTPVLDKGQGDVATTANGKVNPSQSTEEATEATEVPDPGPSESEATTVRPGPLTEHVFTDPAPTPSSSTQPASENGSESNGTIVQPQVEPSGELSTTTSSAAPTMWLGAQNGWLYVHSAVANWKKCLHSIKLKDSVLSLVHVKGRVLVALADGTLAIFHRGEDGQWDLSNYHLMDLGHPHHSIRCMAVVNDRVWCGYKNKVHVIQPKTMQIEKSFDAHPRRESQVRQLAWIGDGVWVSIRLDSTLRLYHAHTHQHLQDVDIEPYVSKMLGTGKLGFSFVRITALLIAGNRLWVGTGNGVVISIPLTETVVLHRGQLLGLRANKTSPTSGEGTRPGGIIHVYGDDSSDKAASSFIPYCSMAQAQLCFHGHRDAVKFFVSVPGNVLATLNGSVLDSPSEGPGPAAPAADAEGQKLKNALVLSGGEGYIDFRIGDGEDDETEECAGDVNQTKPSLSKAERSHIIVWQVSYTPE
B2: ADP-ribosylation factor 6 (Mus musculus), P62331 (parent)
chain: B1 chain
partner: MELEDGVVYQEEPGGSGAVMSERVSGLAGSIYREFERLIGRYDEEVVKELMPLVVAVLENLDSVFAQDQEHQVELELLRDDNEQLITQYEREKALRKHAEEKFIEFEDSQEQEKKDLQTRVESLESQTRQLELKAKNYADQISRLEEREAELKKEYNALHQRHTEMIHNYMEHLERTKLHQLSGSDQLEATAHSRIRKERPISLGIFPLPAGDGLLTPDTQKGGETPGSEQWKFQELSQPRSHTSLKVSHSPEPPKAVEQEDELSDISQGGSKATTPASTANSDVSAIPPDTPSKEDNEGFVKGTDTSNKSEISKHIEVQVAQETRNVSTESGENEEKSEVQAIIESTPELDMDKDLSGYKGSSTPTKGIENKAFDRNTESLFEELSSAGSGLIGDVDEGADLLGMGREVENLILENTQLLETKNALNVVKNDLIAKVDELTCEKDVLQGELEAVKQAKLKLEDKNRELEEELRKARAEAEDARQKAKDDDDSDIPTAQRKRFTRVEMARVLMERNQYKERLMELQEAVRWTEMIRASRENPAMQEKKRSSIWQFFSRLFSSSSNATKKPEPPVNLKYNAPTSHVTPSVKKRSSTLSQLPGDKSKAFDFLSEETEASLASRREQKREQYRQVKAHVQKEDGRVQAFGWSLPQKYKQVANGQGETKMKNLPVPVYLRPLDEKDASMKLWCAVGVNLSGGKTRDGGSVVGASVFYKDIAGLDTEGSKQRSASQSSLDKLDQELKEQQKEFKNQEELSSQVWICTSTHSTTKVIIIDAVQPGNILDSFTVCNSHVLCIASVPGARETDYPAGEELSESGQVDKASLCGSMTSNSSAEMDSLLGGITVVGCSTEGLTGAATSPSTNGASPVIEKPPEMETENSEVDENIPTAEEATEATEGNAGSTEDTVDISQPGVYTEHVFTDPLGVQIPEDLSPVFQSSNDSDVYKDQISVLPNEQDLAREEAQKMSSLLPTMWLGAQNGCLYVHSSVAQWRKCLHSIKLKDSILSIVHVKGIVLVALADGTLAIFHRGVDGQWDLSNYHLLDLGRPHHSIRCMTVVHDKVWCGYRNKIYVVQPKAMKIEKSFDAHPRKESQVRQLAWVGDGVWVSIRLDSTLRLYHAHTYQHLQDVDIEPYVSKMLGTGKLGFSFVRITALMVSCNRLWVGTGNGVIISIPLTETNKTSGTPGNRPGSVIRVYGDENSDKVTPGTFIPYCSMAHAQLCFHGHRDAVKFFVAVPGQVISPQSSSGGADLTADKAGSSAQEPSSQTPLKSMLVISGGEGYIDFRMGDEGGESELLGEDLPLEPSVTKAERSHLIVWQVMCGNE

The variants in one assay derive from B1. The settings on record: with jip3_mouse Mapk8ip3, Q9ESN9.
Consider L19V, for which the “effect of a mutation on the interaction” value is reported as “decreasing interaction”.

The variants in a further assay derive from B1. As to conditions: with jip3_mouse Mapk8ip3, Q9ESN9. This is another data set of the same source.
With T53E, the “effect of a mutation on the interaction” value is “disrupting interaction”.

Turning to N60T, the “effect of a mutation on the interaction” value is “disrupting interaction”.

Turning to K58C, the “effect of a mutation on the interaction” value is “disrupting interaction”.

The next assay covers variants of B1. The settings on record: with jip3_mouse Mapk8ip3, Q9ESN9. The source holds these as a separate data set.
Consider T53E, for which the “effect of a mutation on the interaction” value is “decreasing interaction”.

In a further assay the parent is B1. As to conditions: with jip3_mouse Mapk8ip3, Q9ESN9. This is another data set of the same source.
Regarding K58C, the “effect of a mutation on the interaction” value is reported as “decreasing interaction”.

The variants in a further assay derive from B1. As to conditions: with jip3_mouse Mapk8ip3, Q9ESN9. This is another data set of the same source.
T27N: the “effect of a mutation on the interaction” value was “decreasing interaction”.

The next assay covers variants of B1. As to conditions: with jip3_mouse Mapk8ip3, Q9ESN9. The source holds these as a separate data set.
T27N: the “effect of a mutation on the interaction” value was “disrupting interaction”.

The next assay covers variants of B2. As to conditions: with jip4_mouse Spag9, Q58A65.
Regarding K58C, the “effect of a mutation on the interaction” value was “disrupting interaction”.

As for T53E, the “effect of a mutation on the interaction” value was “disrupting interaction”.

For N60T, the “effect of a mutation on the interaction” value is “disrupting interaction”.

In another assay the parent is B2. The settings on record: with jip4_mouse Spag9, Q58A65. The source holds these as a separate data set.
On to K58C, for which the “effect of a mutation on the interaction” value is “decreasing interaction”.

Variants of B2 are the subject of a further assay. As to conditions: with jip4_mouse Spag9, Q58A65. This is another data set of the same source.
As to T27N, the “effect of a mutation on the interaction” value was “disrupting interaction”.

In a further assay the parent is B2. As to conditions: with jip4_mouse Spag9, Q58A65. The source holds these as a separate data set.
On to T27N, for which the “effect of a mutation on the interaction” value is given as “decreasing interaction”.

Variants of B2 are the subject of a further assay. The settings on record: with jip4_mouse Spag9, Q58A65. This is another data set of the same source.
Turning to T53E, the “effect of a mutation on the interaction” value is given as “decreasing interaction”.

Variants of B2 are the subject of another assay. As to conditions: with jip4_mouse Spag9, Q58A65. The source holds these as a separate data set.
In the case of L19V, the “effect of a mutation on the interaction” value is given as “decreasing interaction”.

The variants in another assay derive from B2. As to conditions: with jip4_mouse Spag9, Q58A65. This is another data set of the same source.
With N60T, the “effect of a mutation on the interaction” value is “decreasing interaction”.

The values are drawn from IntAct's records for PubMed 20493856.
